B1: CHK-102 (mouse monoclonal antibody) (antibody, V domains shown)
VH: QVQLQQSGAELVKPGASVKISCKTSGYAFSSFWMHWVKQRPGKGLEWIGQIYPGDGDTNYNGKFKDKATLTADKSSNTAYMQLTSLTSEDSAVYFCARNLLFDYWGQGTTLTVSS
VL: EILMTQSPAILSVSPGERVSFSCRASQSIGSNIHWYQQRTNGSPRLLIKYASESISGIPSRFSGSGSGTDFTLSINSVESEDIADYYCQQNNIWPFTFGSGTKLEIK
B2: CHK-152 (mouse monoclonal antibody) (antibody, V domains shown)
VH: QVQLQQPGAALVKPGASAMMSCKASGYTFTSYWITWVKQRPGQGLEWIGDIYPGTGRTIYKEKFKTKATLTVDTSSSTAFMQLNSLTSEDSAVYYCARGYGSPYYALDYWGQGTSVTVSS
VL: DIVLTQSPASLAVSQGQRATISCKASQSVDYDGDSYVNWYQQKPGQSPKLLIYDASNLESGIPARFSGSGSGTDFTLNIHPVEEEDVATYYCQESNEDPRTFGGGTKLEIK
notes: mouse VH of CHK-152; mouse IgG heavy-chain constant region; mouse VL of CHK-152; mouse light-chain constant region; also called murine CHK-152; mouse CHK-152
B3: CHK-166 (mouse monoclonal antibody) (antibody, V domains shown)
VH: EVRLVESGGGLEQPGGSLKLSCAASGFTFSDYFMYWVRQTPEKRLEWVAYISNGGISTFYSDAVKGRFTISRDNARNTLYLQMSRLKSEDTAIYYCVRQVYGQGYFDYWGQGTTLAVSS
VL: QIVLIQSPAIMSASLGERVTMTCTASSSVSSSYLHWYQQKPGSSPKLWIYSSFSLASGVPARFSGSGSGTSYSLTISTMEAEDAATYYCHQYLRSPWTFGGGSKLEIK
B4: CHK-263 (mouse monoclonal antibody) (antibody, V domains shown)
VH: QVQLQQSGAELVKPGASVKISCKASGYAFSSYWMNWVKQRPGKGLEWIGQIYPGDGDTNYNGKFKGKATLTADKSSSTAYMQLSSLTSEDSAVYFCARGGLTIDYWGQGTTLTVSS
VL: DIVLTQSPATLSVTPGDSVSLSCRASQSISDNLHWYQQKSHESPGLLIKYASQSISGIPSRFSGSGSGTDFTLSINSVETEDFGMYFCQQSNSWPYTFGGGTKLEIK

Experiments:
[1] = target: CHIKV pE2-E1 (E3-E2-E1) of the CHIKV-LR strain (Chikungunya virus La Reunion 2006 OPY-1 …, strain); experiment: cell-based or functional assay
[2] = target: T1, CHIKV 181-25 virion (Chikungunya virus, strain 181/25 …, UniProt Q88628, strain); experiment: ELISA; virion capture competition ELISA: plates coated with 5 µg/ml CHK-65, 3x10^6 FFU of CHIKV 181-25 captured, incubated with mouse MAbs for one hour, washed, then 125 ng/ml hu-CHK-152, detected with biotin-labeled goat anti-human antibody and HRP-streptavidin; conditions: one partner purified
T1 construct: E2 envelope glycoprotein of Chikungunya virus strain 181-25, on virions; E1 envelope glycoprotein of Chikungunya virus strain 181-25, on virions; Whole virus particle captured on the plate by the MAb CHK-65; the capsid protein inside the particle is not written as a chain; also called CHIKV virion; virions; copies: 240 + 240

| Binder | EC50 of neutralisation of CHIKV-LR (FRNT on NIH 3T3 cells) [1] | EC50 of neutralisation of CHIKV-LR (FRNT on Vero cells) [1] | EC90 of neutralisation of CHIKV-LR (FRNT on Vero cells) [1] | binding result [2] |
| --- | --- | --- | --- | --- |
| B1 | 30 ng/mL | 14 ng/mL | 351 ng/mL |  |
| B2 | 1 ng/mL | 2 ng/mL | 10 ng/mL | binds |
| B3 | 202 ng/mL | 154 ng/mL | 8600 ng/mL |  |
| B4 | 2 ng/mL | 5 ng/mL | 136 ng/mL |  |

Reference: publication PMC3630103, “Development of a Highly Protective Combination Monoclonal Antibody Therapy against Chikungunya Virus” (PLoS Pathogens, 2013)
